Test results from article PMC5727476.

Columns and labels:
[1] = biological target: Eudiplozoon nipponicum cathepsin B (EnCB) (Eudiplozoon nipponicum)
[2] = biological target: Eudiplozoon nipponicum cathepsin L3 (EnCL3) (Eudiplozoon nipponicum)
[3] = biological target: recombinant Ixodes ricinus asparaginyl endopeptidase (IrAe) (Ixodes ricinus)
[4] = biological target: recombinant mouse cathepsin L (MmCL) (mouse) (UniProt P06797)
UniProt P06797, sequence (P06797 18-334): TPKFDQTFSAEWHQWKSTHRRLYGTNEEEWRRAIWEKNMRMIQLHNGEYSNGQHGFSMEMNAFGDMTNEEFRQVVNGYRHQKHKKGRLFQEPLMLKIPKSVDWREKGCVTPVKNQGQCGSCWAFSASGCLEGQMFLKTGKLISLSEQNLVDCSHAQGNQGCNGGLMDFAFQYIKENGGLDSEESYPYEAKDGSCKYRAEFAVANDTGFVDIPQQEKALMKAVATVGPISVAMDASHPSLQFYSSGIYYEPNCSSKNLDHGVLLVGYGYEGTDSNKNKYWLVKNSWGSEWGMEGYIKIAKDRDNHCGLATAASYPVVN

recombinant Eudiplozoon nipponicum stefin (rEnStef) (natural protein)
IC50 of inhibition of peptidase activity (continuous fluorometric assay, Z-Phe-Arg-AMC, 25 mM MES pH 6, 5 mM DTT; peptidase 10 nM) [1]: 0.0137 µM
IC50 of inhibition of peptidase activity (continuous fluorometric assay, Z-Phe-Arg-AMC, 25 mM MES pH 6, 5 mM DTT; peptidase 10 nM) [2]: 0.0467 µM
IC50 of inhibition of peptidase activity (continuous fluorometric assay, Z-Ala-Ala-Asn-AMC, 25 mM MES pH 6, 5 mM DTT; peptidase 10 nM) [3]: 0.371 µM
IC50 of inhibition of peptidase activity (continuous fluorometric assay, Z-Phe-Arg-AMC, 25 mM MES pH 6, 5 mM DTT; peptidase 5 nM) [4]: 0.133 µM
